How the values were obtained:
[1] = target: T1, biotinylated human PD-L1 (human, UniProt Q9NZQ7 19-238, limits assumed, biotinylated (site not stated)); assay: blocking ELISA: biotinylated human PD-L1 pre-incubated with Fab, then added to coated human PD-1-Fc (blocked partner), streptavidin-HRP
[2] = target: T2, human PD-L1 coupled to human Fc (human, UniProt Q9NZQ7 19-239, limits assumed); assay: SPR (Proteon XPR36), human PD-L1-Fc immobilised, crude H12 Fab extract flowed
T2 construct: also called human PD-L1-Fc; not shown: human Fc

[3] = target: T3, murine PD-L1 coupled to human Fc (murine, UniProt Q9EP73 19-238, limits assumed); assay: SPR (Proteon XPR36), mouse PD-L1-Fc immobilised, crude H12 Fab extract flowed
T3 construct: also called murine PD-L1-Fc; mouse PD-L1 coupled to Fc; not shown: human Fc

[4] = target: T3, murine PD-L1 coupled to human Fc; assay: SPR, Proteon XPR36, murine PD-L1-Fc immobilised, crude H12 Fab extract flown over
[5] = target: biotinylated murine PD-L1 (murine, UniProt Q9EP73 19-238, limits assumed, biotinylated (site not stated)); assay: blocking ELISA: biotinylated murine PD-L1 pre-incubated with Fab, then added to coated murine PD-1-Fc (blocked partner), streptavidin-HRP
[6] = target: T2, human PD-L1 coupled to human Fc; assay: SPR, Proteon XPR36, human PD-L1-Fc immobilised, crude H12 Fab extract flown over
[7] = target: T4, human CD28 (human, UniProt P10747 19-152, limits assumed); assay: ELISA on coated antigen (sheet label huCD28-Fc)
T4 construct: also called hu CD28

[8] = target: PD-L1 (blocking ELISA of Example 13) (Homo sapiens (Human), UniProt Q9NZQ7 19-238); assay: blocking ELISA: antibody pre-incubated with PD-L1, added to coated PD-1 (blocked partner), PD-1-bound PD-L1 detected
[9] = target: T5, human CTLA-4 (human, UniProt P16410 36-162, limits assumed); assay: ELISA on coated antigen (sheet label huCTL-A4)
T5 construct: also called hu CTL-A4

[10] = target: T6, human LAG-3 (human, UniProt P18627 23-450, limits assumed); assay: ELISA on coated antigen (sheet label huLAG-3-Fc)
T6 construct: also called hu LAG-3
T6 sequence (looked up): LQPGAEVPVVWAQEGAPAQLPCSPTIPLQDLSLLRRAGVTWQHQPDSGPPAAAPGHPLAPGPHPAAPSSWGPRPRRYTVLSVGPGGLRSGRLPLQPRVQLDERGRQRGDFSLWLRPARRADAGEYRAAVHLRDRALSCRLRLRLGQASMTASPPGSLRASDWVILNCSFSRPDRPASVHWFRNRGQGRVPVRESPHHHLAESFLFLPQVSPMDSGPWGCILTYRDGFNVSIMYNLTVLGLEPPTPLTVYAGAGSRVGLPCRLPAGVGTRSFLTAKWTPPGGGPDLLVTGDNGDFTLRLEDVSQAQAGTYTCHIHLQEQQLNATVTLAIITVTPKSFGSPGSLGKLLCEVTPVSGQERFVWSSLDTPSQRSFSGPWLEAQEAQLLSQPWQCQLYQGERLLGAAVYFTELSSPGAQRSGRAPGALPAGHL

[11] = target: T7, human PD-1 (ELISA antigen of Example 8) (human, UniProt Q15116 25-167, limits assumed); assay: ELISA on coated antigen (sheet label huPD-1-Fc)
T7 construct: also called hu PD-1

[12] = target: T1, biotinylated human PD-L1; assay: avidity ELISA: biotinylated human PD-L1 at 0.2 ug/mL on neutravidin, antibody titrated (x axis IgG, nM), anti-human Fc-HRP
Protocol: Neutravidin was coated onto maxisorp plates at 2 μg/mL in coating buffer and incubated overnight at 4° C. The next day, plates were washed with wash buffer (PBS+0.05% Tween-20), and blocker with casein for 1 hour, at room temperature. Plates were then washed again using wash buffer. […] Plates were then washed again using wash buffer. The different antibodies were then added at various concentrations, and incubated for 1 hour at room temperature. Plates were then washed again using wash buffer. Anti-human Fc-HRP was then added and incubated for 1 hour at room temperature. Plates were then washed again using wash buffer. Finally, TMB was added to develop the ELISA; TMB conversion by HRP was stopped using 1M H-Cl.

[13] = target: T1, biotinylated human PD-L1; assay: ELISA: antibody coated at 2 ug/mL, biotinylated human PD-L1 titrated (x axis Human PD-L1, nM), streptavidin-HRP
Protocol: Binding was measured by ELISA. Antibodies were coated onto maxisorp plates at 2 μg/mL in coating buffer and incubated overnight at 4° C. The next day, plates were washed with wash buffer (PBS+0.05% Tween-20), and blocker with casein for 1 hour, at room temperature. Plates were then washed again using wash buffer. […] Plates were then washed again using wash buffer. […] Plates were then washed again using wash buffer. Finally, TMB was added to develop the ELISA; TMB conversion by HRP was stopped using 1M H-Cl.

[14] = target: T8, human ICOS (human, UniProt Q9Y6W8 21-140, limits assumed); assay: ELISA on coated antigen (sheet label huICOS-Fc)
T8 construct: also called hu ICOS
T8 sequence (looked up): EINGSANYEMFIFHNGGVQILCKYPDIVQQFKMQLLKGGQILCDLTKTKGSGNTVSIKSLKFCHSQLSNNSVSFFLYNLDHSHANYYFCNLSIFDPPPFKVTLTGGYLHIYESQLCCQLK

[15] = target: T9, human TIM-3 (human, UniProt Q8TDQ0 22-200, limits assumed); assay: ELISA on coated antigen (sheet label huTIM-3-Fc)
T9 construct: also called hu TIM-3

[16] = target: T10, human PD-L2 (human, UniProt Q9BQ51 20-220, limits assumed); assay: ELISA on coated antigen (sheet label huPD-L2-Fc)
T10 construct: also called hu PD-L2
T10 sequence (looked up): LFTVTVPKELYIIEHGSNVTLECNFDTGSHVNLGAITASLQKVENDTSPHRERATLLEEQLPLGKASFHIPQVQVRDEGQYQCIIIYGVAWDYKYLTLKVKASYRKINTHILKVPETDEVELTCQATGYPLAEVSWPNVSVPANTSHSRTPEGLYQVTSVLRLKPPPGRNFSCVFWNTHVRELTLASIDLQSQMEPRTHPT

[17] = target: T11, human BTLA (human, UniProt Q7Z6A9 31-151, limits assumed); assay: ELISA on coated antigen (sheet label huBTLA-Fc)
T11 construct: also called hu BLTA

[18] = target: T2, human PD-L1 coupled to human Fc; assay: ELISA on coated human PD-L1-Fc, Fab detected with anti-human Fab-HRP, absorbance 450-670 nm
Protocol: (§1) After 90 minutes at room temperature under agitation and extensive washes, a goat anti-human Fab antibody coupled to HRP was added. One hour later, plates were washed and TMB substrate added. The reaction was stopped with 1M HCl and optical density measured at 450 nm with a reference at 670 nm.

[19] = target: T12, human PD-L1 (ELISA antigen, construct not stated) (human, UniProt Q9NZQ7 19-238, limits assumed); assay: ELISA of Fab clones with human PD-L1 as antigen
T12 construct: The construct is not described; also called hu PD-L1

[20] = target: T3, murine PD-L1 coupled to human Fc; assay: ELISA on coated murine PD-L1-Fc, Fab detected with anti-human Fab-HRP, absorbance 450-670 nm
Protocol: as §1

T2 sequence (Q9NZQ7 19-239 limits assumed): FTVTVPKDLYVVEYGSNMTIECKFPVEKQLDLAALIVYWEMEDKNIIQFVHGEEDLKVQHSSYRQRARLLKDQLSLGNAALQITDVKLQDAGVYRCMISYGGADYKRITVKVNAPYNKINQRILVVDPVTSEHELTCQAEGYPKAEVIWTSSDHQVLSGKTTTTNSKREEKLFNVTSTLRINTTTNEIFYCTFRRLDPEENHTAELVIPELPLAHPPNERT
T3 sequence (Q9EP73 19-238 limits assumed): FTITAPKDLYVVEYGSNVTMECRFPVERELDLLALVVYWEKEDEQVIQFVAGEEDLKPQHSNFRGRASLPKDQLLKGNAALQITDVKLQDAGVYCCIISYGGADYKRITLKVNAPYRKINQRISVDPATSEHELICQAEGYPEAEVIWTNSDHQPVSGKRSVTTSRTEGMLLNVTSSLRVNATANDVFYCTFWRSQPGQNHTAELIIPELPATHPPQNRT
T1 sequence (Q9NZQ7 19-238 limits assumed): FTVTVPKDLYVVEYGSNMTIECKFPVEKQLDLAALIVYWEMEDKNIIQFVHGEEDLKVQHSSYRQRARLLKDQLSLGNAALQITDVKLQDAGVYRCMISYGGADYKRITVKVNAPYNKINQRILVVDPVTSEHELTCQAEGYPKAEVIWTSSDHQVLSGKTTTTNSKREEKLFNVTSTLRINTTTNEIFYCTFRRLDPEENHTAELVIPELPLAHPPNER
Sequence of biotinylated murine PD-L1 (Q9EP73 19-238 limits assumed): as the sequence (Q9EP73 19-238 limits assumed) above
T11 sequence (Q7Z6A9 31-151 limits assumed): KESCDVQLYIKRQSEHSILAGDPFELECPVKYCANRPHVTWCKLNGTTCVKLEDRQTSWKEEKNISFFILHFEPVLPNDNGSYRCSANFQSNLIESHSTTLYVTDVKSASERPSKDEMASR
T12 sequence (Q9NZQ7 19-238 limits assumed): as the sequence (Q9NZQ7 19-238 limits assumed) above
Sequence of PD-L1 (blocking ELISA of Example 13) (Q9NZQ7 19-238 limits assumed): as above
T5 sequence (P16410 36-162 limits assumed): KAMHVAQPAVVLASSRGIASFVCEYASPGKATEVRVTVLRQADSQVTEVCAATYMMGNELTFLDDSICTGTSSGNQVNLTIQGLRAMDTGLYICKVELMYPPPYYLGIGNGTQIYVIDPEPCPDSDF
T7 sequence (Q15116 25-167 limits assumed): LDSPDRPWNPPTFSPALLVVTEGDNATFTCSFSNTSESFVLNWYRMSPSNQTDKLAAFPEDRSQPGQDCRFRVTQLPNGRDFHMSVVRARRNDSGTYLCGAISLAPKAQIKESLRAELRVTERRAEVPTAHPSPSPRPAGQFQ

B1: anti-PD-L1 antibody clone H12, Fab format (Fab, V domains shown)
VH: EVQLVQSGAEVKKPGASVKVSCKASGGTFSSYAISWVRQAPGQGLEWMGRIIPILGIANYAQKFQGRVTITADKSTSTAYMELSSLRSEDTAVYYCARSGHGYSYGAFDYWGQGTL
VL: QSVLTQPPSVSGAPGQRVTISCTGSSSNIGAGYDVHWYQQLPGTAPKLLIYGNSNRPSGVPDRFSGSKSGTSASLAITGLQAEDEADYYCQSYDSSLSGSYVVFGGGTKLTVL
notes: Tested as Fab; the SPR used a crude Fab extract; also called crude H12 Fab extract
Question: Which results are given for B1?
Answer: IC50 (read off the curve) [1]: ~20 nM; Kd [2]: 0.313 nM; Kd [3]: 3.04 nM; koff [4]: 0.00407 s⁻¹; kon [4]: 1.34e+06 M⁻¹ s⁻¹; IC50 (read off the curve) [5]: ~4 nM; koff [6]: 0.000471 s⁻¹; kon [6]: 1.5e+06 M⁻¹ s⁻¹

B2: anti-PD-L1 antibody H12 (format not stated) (antibody, V domains shown)
VH: EVQLVQSGAEVKKPGASVKVSCKASGGTFSSYAISWVRQAPGQGLEWMGRIIPILGIANYAQKFQGRVTITADKSTSTAYMELSSLRSEDTAVYYCARSGHGYSYGAFDYWGQGTL
VL: QSVLTQPPSVSGAPGQRVTISCTGSSSNIGAGYDVHWYQQLPGTAPKLLIYGNSNRPSGVPDRFSGSKSGTSASLAITGLQAEDEADYYCQSYDSSLSGSYVVFGGGTKLTVL
Question: Does B2 bind [7]?
Answer: no binding

Question: What about the “IC50 (read off the curve)” value [8] of the same binder?
Answer: ~2 nM

Question: Does B2 bind [9]?
Answer: no binding

Question: Does B2 bind [10]?
Answer: no binding

Question: Does B2 bind [11]?
Answer: no binding

Question: And the “EC50 (read off the curve)” value [12]?
Answer: ~0.1 nM

Question: And the “EC50 (read off the curve)” value [13]?
Answer: ~0.4 nM

Question: Does B2 bind [14]?
Answer: no binding

Question: Does B2 bind [15]?
Answer: no binding

Question: Does B2 bind [16]?
Answer: no binding

Question: Does B2 bind [17]?
Answer: no binding

B3: anti-PD-L1 antibody clone A1, Fab format (Fab, V domains shown)
VH: QVQLQQSGAEVKKPGSSVKVSCKASGGTFSSYAISWVRQAPGQGLEWMGRIIPILGIANYAQKFQGRVTITADKSTSTAYMELSSLRSEDTAVYYCARGGSYGSLYAFDIWGQGTMVTVSS
VL: QSVLTQPPSVSAAPGQRVSISCSGRSSNIASHDVFWYQQLPGTAPKIVMYETNKRPWGIPDRFSGSKSGTSATLDIAGLQTGDEADYYCGAWDSGLTGMLFGGGTKVTVL
notes: From a human phage display library and tested as Fab; the Fab constant domains are not
Question: Does B3 bind [18]?
Answer: binds

Question: Does B3 bind [1]?
Answer: binds

Question: Does B3 bind [19]?
Answer: binds

Question: Does B3 bind [5]?
Answer: binds

Question: Does B3 bind [20]?
Answer: binds
